Experimental data as given in the supplement of paper PMC10724198.
± gives the standard deviation of the averaged measurements.

Tested on: Saccharomyces cerevisiae
Assay: protein stability index of tFT-peptide fusion (C-terminal peptide) (PSI (0-1 scale)); higher = more stable (slower turnover)
Conditions: temperature: 30 C
Experimental: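 MPS profiling in S. cerevisiae of the yeast C-terminome library: the last 12 aa of each annotated ORF are fused to the C-terminus of a sfGFP-mCherry timer, after a GGGS linker. Cells are FACS-sorted into 8 mCherry/sfGFP bins and deep-sequenced. PSI runs from 0 (unstable) to 1 (stable); wild type and das1Δ backgrounds, two technical replicates each.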

[1] = genetic background: das1 deletion

ALKKEYEAKKKA [COA3 C-terminal 12 aa]
protein stability index [1]: 0.6861 ± 0.0068 | protein stability index (genetic background: wild type): 0.664 ± 0.0072

TASQILKFEGRI [GRE2 C-terminal 12 aa]
protein stability index [1]: 0.718 ± 0.035 | protein stability index (genetic background: wild type): 0.695 ± 0.057

SVENIFMIWFFY [YJL022W C-terminal 12 aa]
protein stability index [1]: 0.5089 ± 0.0034 | protein stability index (genetic background: wild type): 0.494 ± 0.011

RRLEMEIANLQE [SPC34 C-terminal 12 aa]
protein stability index [1]: 0.726 ± 0.036 | protein stability index (genetic background: wild type): 0.706 ± 0.028

NQRSFNDKSKRD [CAX4 C-terminal 12 aa]
protein stability index [1]: 0.692 ± 0.009 | protein stability index (genetic background: wild type): 0.6901 ± 0.0064

SSSEQITSSITS [YAR062W C-terminal 12 aa]
protein stability index [1]: 0.71 ± 0.025 | protein stability index (genetic background: wild type): 0.67 ± 0.008

TSQEINDRLEAL [PRE8 C-terminal 12 aa]
protein stability index [1]: 0.666 ± 0.027 | protein stability index (genetic background: wild type): 0.643 ± 0.0082

YPVDKEGDIVLE [THP2 C-terminal 12 aa]
protein stability index [1]: 0.679 ± 0.0084 | protein stability index (genetic background: wild type): 0.662 ± 0.039

HHNQIGVPRVEN [GID8 C-terminal 12 aa]
protein stability index [1]: 0.679 ± 0.013 | protein stability index (genetic background: wild type): 0.674 ± 0.011

LSQIVDIWNKDI [MNT2 C-terminal 12 aa]
protein stability index [1]: 0.741 ± 0.03 | protein stability index (genetic background: wild type): 0.79 ± 0.044

KLCTGIVWAPRV [YAR070C C-terminal 12 aa]
protein stability index [1]: 0.681 ± 0.0084 | protein stability index (genetic background: wild type): 0.7035 ± 0.0022

NNNMESFPEMSP [GLE1 C-terminal 12 aa]
protein stability index [1]: 0.726 ± 0.013 | protein stability index (genetic background: wild type): 0.72 ± 0.017

RARLIRKKKTIN [YER085C C-terminal 12 aa]
protein stability index [1]: 0.751 ± 0.022 | protein stability index (genetic background: wild type): 0.202 ± 0.022

SKVNSTRLVSRK [KAR3 C-terminal 12 aa]
protein stability index [1]: 0.6908 ± 0.0058 | protein stability index (genetic background: wild type): 0.723 ± 0.014

NVTKLAKERVLF [CPA1 C-terminal 12 aa]
protein stability index [1]: 0.6847 ± 0.0048 | protein stability index (genetic background: wild type): 0.703 ± 0.055

TSPIGEFQSIKH [SPT21 C-terminal 12 aa]
protein stability index [1]: 0.731 ± 0.015 | protein stability index (genetic background: wild type): 0.674 ± 0.037

NEEYIEELDLVL [HSH155 C-terminal 12 aa]
protein stability index [1]: 0.696 ± 0.0089 | protein stability index (genetic background: wild type): 0.674 ± 0.015

SEKIYRRSLFKQ [YKL165C-A C-terminal 12 aa]
protein stability index [1]: 0.708 ± 0.03 | protein stability index (genetic background: wild type): 0.686 ± 0.044

RMYTRHKTSFPL [YAL042C-A C-terminal 12 aa]
protein stability index [1]: 0.711 ± 0.02 | protein stability index (genetic background: wild type): 0.66427 ± 0.00065

PLLELVMELRDR [MOB1 C-terminal 12 aa]
protein stability index [1]: 0.726 ± 0.051 | protein stability index (genetic background: wild type): 0.736 ± 0.01

KKKFYKQYHFDL [PDR8 C-terminal 12 aa]
protein stability index [1]: 0.715 ± 0.016 | protein stability index (genetic background: wild type): 0.727 ± 0.035

DSDLFFVAEAIS [YIL032C C-terminal 12 aa]
protein stability index [1]: 0.7373 ± 0.0022 | protein stability index (genetic background: wild type): 0.703 ± 0.022

WSPLHAAKRHRI [MRPL51 C-terminal 12 aa]
protein stability index [1]: 0.692 ± 0.014 | protein stability index (genetic background: wild type): 0.695 ± 0.02

VVEKVSSITNRN [SRF1 C-terminal 12 aa]
protein stability index [1]: 0.6869 ± 0.0056 | protein stability index (genetic background: wild type): 0.669 ± 0.065

SQTQAGSAYYTK [YOR268C C-terminal 12 aa]
protein stability index [1]: 0.699 ± 0.026 | protein stability index (genetic background: wild type): 0.688 ± 0.025

CINCSRFIHNIN [YMR230W-A C-terminal 12 aa]
protein stability index [1]: 0.70103 ± 0.00057 | protein stability index (genetic background: wild type): 0.304 ± 0.013

AREAVVRAGFDS [YIH1 C-terminal 12 aa]
protein stability index [1]: 0.729 ± 0.01 | protein stability index (genetic background: wild type): 0.745 ± 0.071

RNSGEKLVAVLK [YNL134C C-terminal 12 aa]
protein stability index [1]: 0.691 ± 0.0088 | protein stability index (genetic background: wild type): 0.6702 ± 0.0052

RNWLGFCTKYEL [ATG15 C-terminal 12 aa]
protein stability index [1]: 0.741 ± 0.021 | protein stability index (genetic background: wild type): 0.735 ± 0.047

AKSLIHLFTSNQ [NRM1 C-terminal 12 aa]
protein stability index [1]: 0.694 ± 0.042 | protein stability index (genetic background: wild type): 0.7334 ± 0.0027

SSTDMNGQPIEF [SKA1 C-terminal 12 aa]
protein stability index [1]: 0.6884 ± 0.0061 | protein stability index (genetic background: wild type): 0.67 ± 0.015

GKKLKKIFGRKK [SEG1 C-terminal 12 aa]
protein stability index [1]: 0.719 ± 0.006 | protein stability index (genetic background: wild type): 0.6627 ± 0.0025

RFRVVLGDSDDE [PSH1 C-terminal 12 aa]
protein stability index [1]: 0.672 ± 0.043 | protein stability index (genetic background: wild type): 0.721 ± 0.075

GSNAEEDDDLYS [CDC48 C-terminal 12 aa]
protein stability index [1]: 0.7027 ± 0.0045 | protein stability index (genetic background: wild type): 0.653 ± 0.03

ERDTTTKPSKRR [KEL3 C-terminal 12 aa]
protein stability index [1]: 0.7092 ± 0.0049 | protein stability index (genetic background: wild type): 0.698 ± 0.013

MKKLQNKKSSAV [CAB5 C-terminal 12 aa]
protein stability index [1]: 0.695 ± 0.05 | protein stability index (genetic background: wild type): 0.677 ± 0.021

PIVHYISDRRTV [ARC15 C-terminal 12 aa]
protein stability index [1]: 0.682 ± 0.013 | protein stability index (genetic background: wild type): 0.688 ± 0.0093

SSNTVYDNILVT [YDR034C-A C-terminal 12 aa]
protein stability index [1]: 0.721 ± 0.037 | protein stability index (genetic background: wild type): 0.724 ± 0.028

TPTCQDPSLTEV [YJR038C C-terminal 12 aa]
protein stability index [1]: 0.7253 ± 0.0048 | protein stability index (genetic background: wild type): 0.6895 ± 0.0068

RAVTPTGKKGRN [YOR296W C-terminal 12 aa]
protein stability index [1]: 0.675 ± 0.035 | protein stability index (genetic background: wild type): 0.6578 ± 0.0052

KSLFSIIDDLQS [MSH6 C-terminal 12 aa]
protein stability index [1]: 0.731 ± 0.0073 | protein stability index (genetic background: wild type): 0.727 ± 0.021

LKDQIVETRTPI [ERG27 C-terminal 12 aa]
protein stability index [1]: 0.707 ± 0.042 | protein stability index (genetic background: wild type): 0.664 ± 0.02

NMLFICLNVPHY [YGL114W C-terminal 12 aa]
protein stability index [1]: 0.6561 ± 0.0045 | protein stability index (genetic background: wild type): 0.632 ± 0.007

NFQTHYRDELLQ [REH1 C-terminal 12 aa]
protein stability index [1]: 0.729 ± 0.054 | protein stability index (genetic background: wild type): 0.584 ± 0.016

LLKKLKVVFGIE [FUN12 C-terminal 12 aa]
protein stability index [1]: 0.703 ± 0.014 | protein stability index (genetic background: wild type): 0.68523 ± 0.0002

VYENNSYPNSHT [RTT105 C-terminal 12 aa]
protein stability index [1]: 0.6964 ± 0.0011 | protein stability index (genetic background: wild type): 0.678 ± 0.023

ITNFFRVLVRLV [YER067C-A C-terminal 12 aa]
protein stability index [1]: 0.526 ± 0.024 | protein stability index (genetic background: wild type): 0.155 ± 0.0039

ATPPYQVFKQQL [FMN1 C-terminal 12 aa]
protein stability index [1]: 0.698 ± 0.071 | protein stability index (genetic background: wild type): 0.668 ± 0.028

EAAKKSEKKSKK [RPL34B C-terminal 12 aa]
protein stability index [1]: 0.702 ± 0.015 | protein stability index (genetic background: wild type): 0.706 ± 0.042

ARAAEERMKKKY [VMS1 C-terminal 12 aa]
protein stability index [1]: 0.671 ± 0.023 | protein stability index (genetic background: wild type): 0.663 ± 0.038

AMDHKFFKTKFE [CKA2 C-terminal 12 aa]
protein stability index [1]: 0.68817 ± 0.00016 | protein stability index (genetic background: wild type): 0.708 ± 0.025

VLFLEDNGFFVF [MET3 C-terminal 12 aa]
protein stability index [1]: 0.765 ± 0.024 | protein stability index (genetic background: wild type): 0.775 ± 0.037

KVETVLNKMFEK [REC114 C-terminal 12 aa]
protein stability index [1]: 0.701 ± 0.015 | protein stability index (genetic background: wild type): 0.687 ± 0.022

DGPKFTFKRRKG [XRS2 C-terminal 12 aa]
protein stability index [1]: 0.713 ± 0.027 | protein stability index (genetic background: wild type): 0.778 ± 0.041

SQTKSKQTLFTI [YPR142C C-terminal 12 aa]
protein stability index [1]: 0.722 ± 0.021 | protein stability index (genetic background: wild type): 0.695 ± 0.038

IPTSFFFFNSIV [YKL123W C-terminal 12 aa]
protein stability index [1]: 0.734 ± 0.034 | protein stability index (genetic background: wild type): 0.305 ± 0.0033

RYIRHLQQNVST [PHO4 C-terminal 12 aa]
protein stability index [1]: 0.688 ± 0.016 | protein stability index (genetic background: wild type): 0.683 ± 0.037

LFDARFERKNPH [SRB8 C-terminal 12 aa]
protein stability index [1]: 0.737 ± 0.025 | protein stability index (genetic background: wild type): 0.7112 ± 0.0032

NNIKWYLHWKFI [VPR1 C-terminal 12 aa]
protein stability index [1]: 0.684 ± 0.033 | protein stability index (genetic background: wild type): 0.168 ± 0.019

EELPSDIATLLN [YKR059W; YJL138C C-terminal 12 aa]
protein stability index [1]: 0.7021 ± 0.00081 | protein stability index (genetic background: wild type): 0.716 ± 0.031

YIKKSAKKGDKN [YHR140W C-terminal 12 aa]
protein stability index [1]: 0.676 ± 0.032 | protein stability index (genetic background: wild type): 0.65 ± 0.016
